Data published in patent US20180037638A1 (SORRENTO THERAPEUTICS, published 2018).

B1: E7 (antibody, V domains shown)
VH: EVQLVQSGAEVKKPGASVRVSCKTSGYSFTSYDINWVRQTTGQGLEWMGWVNPTSGSTGYAQKFQGRVTMTANTAINTAYMELRDLRSEDTAVYFCVRDVPFDPWGQGTLVTVSS
VL: LQSVLTQPASVSGSPGQSITISCTGTSSDVGKYTFVSWYQQHPGKAPKVMVYEVNKRPLGVSPRFSGSKSGNTAYLTISGLQAEDEADYYCSSYTSSSTVVFGGGTKLTVL
B2: C7 (antibody, V domains shown)
VH: EVQLVQSGAEMKKPGASMKVSCKTSGYTFARKYMHWLRQAPGQGLEWMGIINPTGGTKSYAPKFQGRVTMTSDMSTNTVYMELNSLRSEDTAVYYCVSDDEEPVWGQGTMVTVSS
VL: QSALTQPPSVSKGLRQTATLTCTGNSNNVGSQGAAWLQQHQGHPPKVLSYRNNNRPSGISERFSASRSGNTASLTITGLQPEDEGDYYCSAWDSSLSAPVFGGGTKLTVL

Legend:
AIP1 = AIP1 (Staphylococcus aureus); assay: cell-based or functional assay
AIP4 = AIP4 (Staphylococcus aureus); assay: cell-based or functional assay

Row | Binder | Inhibition of AIP1 QS (IC50; nM), agr-driven YFP reporter strain USA300-LAC (AIP1) | Inhibition of AIP4 QS (IC50; nM), agr-driven YFP reporter strain MnTG (AIP4)
1 | B1 | 91.1 nM | 53.5 nM
2 | B2 | 110 nM | 86 nM
